Sequences and labels used below:
B1: C5 (VHH)
VHH: QVQLVESGGGSVQAGGSLTLSCVASGVTLGRHAIGWFRQAPGKERERVSCIRTFDGITSYVESTKGRFTISSNNAMNTVYLQMNSLKPEDTAVYFCALGVTAACSDNPYFWGQGTQVTVSS
notes: also called VHH C5
B2: H3 (VHH)
VHH: QVQLVESGGGLVKTGGSLRLSCAASGRTFSTYSMGWFRQAPGKEREFVAGMRWTGSSTFYSDSVKGRFTVSRNNAKDTVYLHMNSLKPEDTAVYYCAITTIVRAYYTEYTEADFGSWGQGTQVTVSS
B3: F2 (VHH)
VHH: QVQLVESGGGLVQAGGSLRLACIASGRTFHSYVMAWFRQAPGKEREFVAAISWSSTPTYYGESVKGRFTISRDNAKNTVYLQMNRLKPEDTAVYFCAADRGESYYYTRPTEYEFWGQGTQVTVSS
notes: also called VHH F2
B4: C1 (VHH)
VHH: QVQLVESGGGLVQPGGSLRLSCAASGFTNDFYSIAWFRQAPGKEREGVSWLSVSDNTPTYVDSVKDRFTISRHNANNTVYLQMNMLKPEDTAIYYCAAGRFAGRDTWPSSYDYWGQGTQVTVSS
B5: H3 trimer (VHH)
chain: QVQLVESGGGLVKTGGSLRLSCAASGRTFSTYSMGWFRQAPGKEREFVAGMRWTGSSTFYSDSVKGRFTVSRNNAKDTVYLHMNSLKPEDTAVYYCAITTIVRAYYTEYTEADFGSWGQGTQVTVSSGAVLAPQVQLVESGGGLVKTGGSLRLSCAASGRTFSTYSMGWFRQAPGKEREFVAGMRWTGSSTFYSDSVKGRFTVSRNNAKDTVYLHMNSLKPEDTAVYYCAITTIVRAYYTEYTEADFGSWGQGTQVTVSSGSGSGSQVQLVESGGGLVKTGGSLRLSCAASGRTFSTYSMGWFRQAPGKEREFVAGMRWTGSSTFYSDSVKGRFTVSRNNAKDTVYLHMNSLKPEDTAVYYCAITTIVRAYYTEYTEADFGSWGQGTQVTVSS
B6: C1 trimer (VHH)
chain: QVQLVESGGGLVQPGGSLRLSCAASGFTNDFYSIAWFRQAPGKEREGVSWLSVSDNTPTYVDSVKDRFTISRHNANNTVYLQMNMLKPEDTAIYYCAAGRFAGRDTWPSSYDYWGQGTQVTVSSGSGSGSQVQLVESGGGLVQPGGSLRLSCAASGFTNDFYSIAWFRQAPGKEREGVSWLSVSDNTPTYVDSVKDRFTISRHNANNTVYLQMNMLKPEDTAIYYCAAGRFAGRDTWPSSYDYWGQGTQVTVSSGSGSGSQVQLVESGGGLVQPGGSLRLSCAASGFTNDFYSIAWFRQAPGKEREGVSWLSVSDNTPTYVDSVKDRFTISRHNANNTVYLQMNMLKPEDTAIYYCAAGRFAGRDTWPSSYDYWGQGTQVTVSS
B7: C5 trimer (VHH)
chain: QVQLVESGGGSVQAGGSLTLSCVASGVTLGRHAIGWFRQAPGKERERVSCIRTFDGITSYVESTKGRFTISSNNAMNTVYLQMNSLKPEDTAVYFCALGVTAACSDNPYFWGQGTQVTVSSGSGSGSQVQLVESGGGSVQAGGSLTLSCVASGVTLGRHAIGWFRQAPGKERERVSCIRTFDGITSYVESTKGRFTISSNNAMNTVYLQMNSLKPEDTAVYFCALGVTAACSDNPYFWGQGTQVTVSSGSGSGSQVQLVESGGGSVQAGGSLTLSCVASGVTLGRHAIGWFRQAPGKERERVSCIRTFDGITSYVESTKGRFTISSNNAMNTVYLQMNSLKPEDTAVYFCALGVTAACSDNPYFWGQGTQVTVSS
notes: also called trimeric C5 nanobody; C5-6GS-C5-6GS-C5

A word on the Kd: it is the free concentration of one partner at which half of the binding sites on the other are occupied at equilibrium, for simple one-to-one binding. Lower therefore signals a tighter complex. For orientation: koff means the first-order rate constant of dissociation. The low end stands for slow dissociation, the high end for fast dissociation. As a reminder, the kon is a measure of how fast the partners come together. Read a low kon as slower complex formation.

One assay concerns the target Alpha RBD.
B1 had a Kd of 2.52 nM and a T1/2 of 1 min.

B2 showed a Kd of 0.102 nM and a T1/2 of 10 min.

Consider B3, for which binding was characterised by a dissociation constant (Kd) of 0.047 nM and the T1/2 was determined as 51 min.

The molecule B4 gave a Kd of 0.725 nM and a T1/2 of 21 min.

A further assay deals with Alpha RBD. This is another data set of the same source.
Molecule B5 yielded a Kd of 0.006 nM, a T1/2 of 98 min, a koff of 0.00012 s⁻¹ and a kon of 1.8e+07 M⁻¹ s⁻¹.

The molecule B6 showed a Kd of 0.073 nM, a T1/2 of 154 min, a koff of 7.4e-05 s⁻¹ and a kon of 1e+06 M⁻¹ s⁻¹.

In turn, B7 had a Kd of 0.029 nM and a T1/2 of 41 min.

Source of the values: US20230374116A1 (ROSALIND FRANKLIN INSTITUTE, published 2023).
